Results: US20250084169A1
Values joined by “and” are separate entries in the source; they are usually repeats but may differ in a detail not shown here. Identical values can stand only once.

Tests used:
[1] = target: SARS-CoV-2 spike South African Δ3 B.1.351 variant on pseudovirus (RVP-724) (SARS-CoV-2) (UniProt P0DTC2); assay: cell-based or functional assay
[2] = target: SARS-CoV-2 spike N439K variant on pseudovirus (RVP-703) (SARS-CoV-2) (UniProt P0DTC2); assay: cell-based or functional assay

Imdevimab (biosimilar version) (antibody)
EC50 (pM) Neutralization, pseudovirus [1]: 2.48 pM and 2.37 pM
EC50 (pM) Neutralization, pseudovirus [2]: 2260 pM and 2220 pM
fold less potent than REGN10933, pseudovirus neutralization [2]: 1000 fold
